Reference: publication PMC10070764, “S100B chaperone multimers suppress the formation of oligomers during Aβ42 aggregation” (Frontiers in Neuroscience, 2023)
Values belong to the binder of their own block, whether it stands above or below them.

Experiments:
[1] = molecular target: amyloid-β 1–42 (Aβ42) peptide (UniProt P05067 672-713); assay: cell-based or functional assay
[2] = molecular target: the molecule itself; assay: SEC + other: electrophoresis; oligomeric state validation of the purified S100B dimer and tetramer preparations, as described (Figueira et al., 2022); conditions not given

Chain of amyloid-β 1–42 (Aβ42) peptide (P05067 672-713): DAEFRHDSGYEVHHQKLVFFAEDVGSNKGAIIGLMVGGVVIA

ThT-subtracted X-34 kinetic traces of Aβ42 (2 μM) aggregation: X-34 positive AβO relative to Aβ42 alone, apo-S100B tetramer:Aβ42 ratios up to 0.5 (effect already at 0.25) [1]: 25%
B1: tetrameric S100B (natural protein, human, UniProt P04271 1-92, looked up)
chain: MSELEKAMVALIDVFHQYSGREGDKHKLKKSELKELINNELSHFLEEIKEQEVVDKVMETLDNDGDGECDFQEFMAFVAMVTTACHEFFEHE
notes: Same chain as m1, isolated as the tetramer; used in the aggregation assays in the Ca^2+-free (apo) state (1.1 mM EDTA); also called apo-S100B tetramer; tetrameric apo-S100B; source: E. coli BL21 (DE3) E. Cline Express, purified to homogeneity
stoichiometry N [2]: 4

B2: dimeric S100B (natural protein, human, UniProt P04271 1-92, looked up)
chain: B1 chain
notes: also called S100B-Ca^2+ dimer; dimeric S100B-Ca^2+; source: E. coli BL21 (DE3) E. Cline Express, purified to homogeneity
stoichiometry N [2]: 2
